Assay results reported in patent publication US20040265963.

Molecular target: T1, Tkip (tyrosine kinase inhibitor peptide), WLVFFVIFYFFR
T1 chain: WLVFFVIFYFFR

B1: Recombinant human JAK2 immobilized on agarose beads (protein)
chain: MGMACLTMTEMEGTSTSSIYQNGDISGNANSMKQIDPVLQVYLYHSLGKSEADYLTFPSGEYVAEEICIAASKACGITPVYHNMFALMSETERIWYPPNHVFHIDESTRHNVLYRIRFYFPRWYCSGSNRAYRHGISRGAEAPLLDDFVMSYLFAQWRHDFVHGWIKVPVTHETQEECLGMAVLDMMRIAKENDQTPLAIYNSISYKTFLPKCIRAKIQDYHILTRKRIRYRFRRFIQQFSQCKATARNLKLKYLINLETLQSAFYTEKFEVKEPGSGPSGEEIFATIIITGNGGIQWSRGKHKESETLTEQDLQLYCDFPNIIDVSIKQANQEGSNESRVVTIHKQDGKNLEIELSSLREALSFVSLIDGYYRLTADAHHYLCKEVAPPAVLENIQSNCHGPISMDFAISKLKKAGNQTGLYVLRCSPKDFNKYFLTFAVERENVIEYKHCLITKNENEEYNLSGTKKNFSSLKDLLNCYQMETVRSDNIIFQFTKCCPPKPKDKSNLLVFRTNGVSDVPTSPTLQRPTHMNQMVFHKIRNEDLIFNESLGQGTFTKIFKGVRREVGDYGQLHETEVLLKVLDKAHRNYSESFFEAASMMSKLSHKHLVLNYGVCVCGDENILVQEFVKFGSLDTYLKKNKNCINILWKLEVAKQLAWAMHFLEENTLIHGNVCAKNILLIREEDRKTGNPPFIKLSDPGISITVLPKDILQERIPWVPPECIENPKNLNLATDKWSFGTTLWEICSGGDKPLSALDSQRKLQFYEDRHQLPAPKWAELANLINNCMDYEPDFRPSFRAIIRDLNSLFTPDYELLTENDMLPNMRIGALGFSGAFEDRDPTQFEERHLKFLQQLGKGNFGSVEMCRYDPLQDNTGEVVAVKKLQHSTEEHLRDFEREIEILKSLQHDNIVKYKGVCYSAGRRNLKLIMEYLPYGSLRDYLQKHKERIDHIKLLQYTSQICKGMEYLGTKRYIHRDLATRNILVENENRVKIGDFGLTKVLPQDKEYYKVKEPGESPIFWYAPESLTESKFSVASDVWSFGVVLYELFTYIEKSKSPPAEFMRMIGNDKQGQMIVFHLIELLKNNGRLPRPDGCPDEIYMIMTECWNNNVNQRPSFRDLALRVDQIRDNMAG
- JAK2 autophosphorylation and JAK2 phosphorylation of IFNGR-1, in vitro kinase assay (32P autoradiography): Tkip at 50 µM inhibited both the autophosphorylation of JAK2 as well as JAK2 phosphorylation of IFNGR-1
